For data set [1], the target named is T1, 6xHis-streptavidin (His-SA) (UniProt P22629 25-183). Put plainly: EMSA; binding through 5' biotin; LSPR on Ni-NTA chip with His-SA capture; sample buffer PBS-T (1X PBS, 0.05% Tween 20); immobilization in PBS-T or PBS-I (1X PBS, 300 mM NaCl total, pH 8.0); 20. To be noted: protein: commercial; tags: 6xHis; chain copies: 4; label: 5' biotin.
The target in data set [2] is T2, thrombin (human plasma, UniProt P00734;P00734 328-363;364-622). Put plainly: SPR (LSPR); Experiment 1; PBS-T; printed as KA from Hill fit (half-saturation, in nM); aptamer immobilized on His-SA/Ni-NTA; BSA present; LSPR on Ni-NTA chip with His-SA capture; sample buffer PBS-T (1X PBS, 0.05% Tween 20); immobilization in PBS-T or PBS-I (1X PBS, 300 mM NaCl total, pH 8.0); 20.

In data set [3] the target is T2, thrombin. Kind of data set: SPR (LSPR); Experiment 7; surface immobilized in PBS-I; printed as KA from Hill fit; BSA present; LSPR on Ni-NTA chip with His-SA capture; sample buffer PBS-T (1X PBS, 0.05% Tween 20); immobilization in PBS-T or PBS-I (1X PBS, 300 mM NaCl total, pH 8.0); 20.
Data set [4] addresses T2, thrombin. Kind of data set: SPR (LSPR); Experiment 8; reused surface of Experiment 7, no new immobilization; printed as KA from Hill fit; BSA present; LSPR on Ni-NTA chip with His-SA capture; sample buffer PBS-T (1X PBS, 0.05% Tween 20); immobilization in PBS-T or PBS-I (1X PBS, 300 mM NaCl total, pH 8.0); 20.
The target of data set [5] is T1, 6xHis-streptavidin (His-SA). Kind of data set: EMSA; no biotin; 1 µM 29mer; LSPR on Ni-NTA chip with His-SA capture; sample buffer PBS-T (1X PBS, 0.05% Tween 20); immobilization in PBS-T or PBS-I (1X PBS, 300 mM NaCl total, pH 8.0); 20. To be noted: protein: commercial; tags: 6xHis; chain copies: 4.

T1 sequence (P22629 25-183): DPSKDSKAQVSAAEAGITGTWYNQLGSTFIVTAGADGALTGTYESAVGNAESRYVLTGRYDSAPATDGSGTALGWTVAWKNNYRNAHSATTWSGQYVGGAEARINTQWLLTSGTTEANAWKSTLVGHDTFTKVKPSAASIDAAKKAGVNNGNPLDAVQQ

For AGTCCGTGGTAGGGCAGGTTGGGGTGACT (structured_DNA, 5' biotin (5Biosg)) [B-29mer (biotinylated thrombin-binding aptamer)], the binding result in data set [1] is “binds”. Also, the Kd was determined as 31.2 nM in the data set with thrombin [2], 18.6 nM with thrombin [3] and 10.3 nM with thrombin [4].
As to AGTCCGTGGTAGGGCAGGTTGGGGTGACT (structured_DNA) [unlabeled 29mer], the binding result in data set [5] is reported as “no binding”.

The values above are taken from paper PMC11086168, “Combining the Benefits of Biotin–Streptavidin Aptamer Immobilization with the Versatility of Ni-NTA Regeneration Strategies for SPR”.
